Biological target: Trypanosoma cruzi uridine phosphorylase (Trypanosoma cruzi)
Assay: SEC

## Trypanosoma cruzi uridine phosphorylase (enzyme)
  stoichiometry N: 2
